From the DeepSol protein solubility set

experiment: soluble on expression in E. coli; label from the status in PepcDB or PDB records

| Sequence | soluble on expression in E. coli |
| --- | --- |
| MDVRIRAIDERSYLNIISAIFKDLGLPQLIDRLVPVDRQCQTRTSDIVSLIILDILSGRQALVHLERWAHDIDWPKWIRPGPDPSWFNDDAIARHLDRLYEANIHQVLSSCLVQIDKKEGLSLRVFHADATDKTVYGAYESDSSDVLHITYGYNRHHRWQKPIGFGLIGNEDGIPFYGDVHDGNLSDKAWNPEVLSRIHEQFKQAKIDDEWMYVADSVAMTKETLAQTKAANAFLITRGPSSLRIVKTALSEADAQPDSAWSAPLRWPRKTAPRIGYGKRPRPMKAAPYG | not soluble |
| MDVRPYEGGRFEKIGSEEAHTIETFERRIHGTPHSEPQRQVSSKQYTERRTYGRDENGEIVVKIEKNPSEPVRPASPVRPVTPVGGENELSRHLLQPIQPLHIPRIDIQPANSSRHASPRHKLQYDEVSPRSGSINMLSPRSGHSASSRSGAGSRQSNVSVNSANVPLKKVTKKSRFVSIHDGRPVSPYTETVSFEVAIPFQPDRYSSASARSFSSSPHVSRRPSECAYLMENPLYQD | not soluble |
| MDVRQSIHSEHAKTLDTQALRREFLIENIFVADEYTMVYSHIDRIIVGGIMPVSHPVEIGGEVGKQLGVSRLLDRRELGVINIGGAGAIIVDGQRHDIGHRDALYIGKGAKELVFVSNEASRPAKFYYNCAPAHTAYPTKKVSPADVAPVTLGDNLTSNRRTINKYFVPDVLETCQLSMGLTELAPGNLWNTMPCHTHERRMEVYLYFNMEEDSCVFHMMGQPQETRHIVMRNEQAVISPSWSIHSGVGTKAYTFVWGMVGENQVFDDMDHVAVQDLR | not soluble |
| MDVVKEIMAAIKQYETIIIHRHQRPDPDAIGSQVGLAELLRASFPEKNIYQVGGPVEGLEFLAEMDVITDDVYRGALVIVTDTANAPRISDARFSLGDQLIKIDHHPNDEPYGDLVWVNTNASSCSEIIVDFWQQHLAELTMTDNAARLLYAGIVGDTGRFLYPSTSAHTLAVAAQLRTFNFNAADLNRELDQMPLKVAKLAGYIYQNLEIDANGAARVVLPQSILNSYDIVDSETAAIVSMPGKIEDVLSWAIFVEQPEGYYRVRLRSKGPIINTIAKKHHGGGHPLASGANARDAAEIEVIYQEIQAACQEWAQK | not soluble |
| MDWDLITERNIQLFIQLAGLAERPLATNMFWRQGQYETYLNYHNGRIHLCQILKQTFLDEELLFKALANWKPAAFQGIPQRLFLLRDGLAMSCSPPLSSSAELWLRLHHRQIKFLESQCVHG | not soluble |
| MDYEIENNHADSIRRGSIEVICGSMFSGKTEELLRRLRRAKIARQTVEIFKPTIDIRYDETDVVSHDKNAIASTPVDNSANILLLSSQVDVVGIDEAQFFDEGLVEVAQQLADQGVRVVIAGLDMDFRRQPFGPMPGLCAIADSVTKVHAVCVECGRLASYSFRRVQGDQQVMLGELNEYSPLCRTCYRKCSSPPQTEEIHSTI | not soluble |
| MDYEIRQEQKRKIAGFHMVGPWEHTVKQGFEQLMTWVDRQRIVPVEWIAVYYDNPDVVPAEKLRCDTVVSVAENFILPDNSEGVIVTAIEGGEYATAVARVEDRDFAKPWERFFDVLEQDSAYQIASAPCFETYLNNGMEDGYWDIEMYIPVQRK | not soluble |
| MDYKEIVFDVDNTLIDTEYAILHSLQDTIKQINRKIIPIKELSFALGITGEDALRYLKIEDITIALSMWDRNMEKYKNTVLVFKEIKEMLTEIIKLNIGIGIVTSKTHEEFRNDFLSFDIAPYFNTVVCSNDTLEHKPKAVPLLKYMELTKCQNNELLYIGDSIYDMQCAYRANVDFGLVKWGSGDRVSTVISFTTPLDLIRQLSVSSN | not soluble |
| MDYSVANAGFERFQSAMEKDVERMRDFQERMSQVRGKGEAAEGRITAEVDSENGLAVLDIDPRVLRMPVEDISTEIRAAVNAAFKDFQDKTGSLAAELYGAQGEDPEKILADPSALLAKIEELGNNFAVQLQDMARELSVQQQRAKDIAGRMTPPRDLD | not soluble |
| MDYTPHTEEEIREMLRRVGAASLEDLFAHLPKEILSPPIDLPEPLPEWKVLEELRRLAAQNLPAHKAFLGGGVRSHHVPPVVQALAARGEFLTAYTPYQPEVSQGVLQATFEYQTMIAELAGLEIANASMYDGATALAEGVLLALRETGRMGVLVSQGVHPEYRAVLRAYLEAVGAKLLTLPLEGGRTPLPEVGEEVGAVVVQNPNFLGALEDLGPFAEAAHGAGALFVAVADPLSLGVLKPPGAYGADIAVGDGQSLGLPMGFGGPHFGFLATKKAFVRQLPGRLVSETVDVEGRRGFILTLQAREQYIRRAKAKSNITTNAQLTALMGAMYLAALGPEGLREVALKSVEMAHKLHALLLEVPGVRPFTPKPFFNEFALALPKDPEAVRRALAERGFHGATPVPREYGENLALFAATELHEEEDLLALREALKEVLA | soluble |
| MEASKDISRLIEIMEALRQPETGCPWDVVQTFETIKPYTIEEAYEVADAIERKDMDDLCDELGDLLLQVVFHARIAEERGEFTFGDVVHAVTSKMIRRHPHVFDVSDADTPDSVKLQWDQIKAEEKRERAERRARRGITEDFKAGFLGGVQRSQPALTEALKLQEQAARVGFDWSDPAPILDKIEEEIAELREALAEGKPEKVSDELGDLIFALVNIGRHVKADPEDALRGTNTKFRRRFNHIETSLSDNGETLKEASLERMEDLWQAAKRIERSLDTVSS | not soluble |
| MEATGLITEYNPFHNGHLYHLKKAQELTKADVTIVLMSGNWVQRGLPAITDKWKRAQAAIDAGADLVFELPFYYAVQAGEIFAQGAVRLLSDLQVSSIICGSEHADIDFINLAAHEPDISGNSNFDKKNRTFASNYAAALEEKTGFYLENANDILAFSYAKAILNQNLTEKIKLRTISRVSADYHDQFLNDGEIASATAIRKALSEGQNVDSYTPMSDLQY | not soluble |
| MEAVHCFRCYKFPSKQIEFYLTNCMHMFCIECERLCHPPEEEPLKCIQCSKTPIRIVKMGPELPMTIKSMFTPISEEINQYTRDLTRVLTFQHRQRASLSTFLERKVAAFDRLRDAYSEEKTKKEHYKKQLEEAYHLLKSKEHEISKLKKQLAEQAPPPQTPPRSNSLKVASSRSLETPSMMRVFSDSMYETPVQIQRRFTKAQAKAEAEAEAPAKSPGSKAQTTKCTSNYQSHPPASFETPIHHPPKTSMGFTTPANPPHMFPYLKKHEAQREKHKEHRNSQ | not soluble |
| MECRLGCGACCIAPSITSFIPGMPNGKPAGVRCVQLNEENLCKLFGKAERPKVCHQFSACPDVCGSTSEQAIQTITELESMTLLEHHHHHH | not soluble |
| MEDEVFVFTPKGDLFKLAKGATVLDFAFHIHSKLGCKCIGAKVNGKNVQLKQKLNSGDQVEIMTSNTQTPKQDWLEHHHHHH | not soluble |
| MEDFWEDWDLAFEDVFPKSLKEALEGIKEIPTYGERGASRFMYNLLKLEKEKRKEIIEKVLEAVEVLRPCRECFLITDREVCPICSDEKRSKKFICVVEESQDAYAIEKLERYKGVYHVLQGHIAPLEGISAEDLTIDALMERIKKYQPKEVILATNPNVEGEATANYIAGLIRRKFPAVKITRTAYGFQFGSLIEFVDEYSLEKSMENRK | soluble |
| MEDIWPTIERTTISASVPEAPANFDEKPPFNRTINVYPLTNYTFGTKDAQAEKDKSVPERFKRMKDEYEVMGMRRSVEAVLIVHEHSLPHILLLQIGTTFYKLPGGELELGEDEISGVTRLLNETLGRTDGETNEWTIEDEIGNWWRPNFDPPRYPYIPAHVTKPKEHTKLLLVQLPSKSTFCVPKNFKLVAAPLFELYDNAAAYGPLISSLPTTLSRFNFIFNDSN | not soluble |
| MEDLKHSDALVREQATKKLWRIWFQQKGMYGLEKIDQSQKLLDAGEITEAEVMLTQLIQEQPDFAEAWNRRAFLYYSMGEYQKSLADCQMVIQINPVHFGALHGIGLCYAALGKYAKAIKAFKRALEIQPYSLVNQKLILECTFRLSLEHHHHHH | soluble |
| MEDLNFEERGSTQIPASLQQHFSAKLGRQNELEKTPSRGGLGLVVNSSKTPGGKSLQSLASACKVPPSTKKNTIPIAFECYEDETDDQIADVATIKKTEKHPCSPIDTANRCETFDSLAADIEDDMLNLEDQDVVLSEDRPYGDVIDPAESEAEALAELGVEEWDSYPPIDPASRIGDDFNYVLRTEDFAEEGDVKLEETRHRTVIADIDEVKMSKAERNELFSMLADDLDSYDLLAEEANLPL | not soluble |
| MEEDQEEPPSSSTSSESPEVVLKAPKAPTRRRKNSKKDRRQDMEVDDGEKESTAQYCKGFYDALRVMQTTNKYEFTGGAVSSPVLPVLQTAAFSPITPASASDMHTIVMSLLGNTPITSGPSIAPLSSPTLLPLVTSGDLDDLSMKILASSAIPGPPIISSSNSPDSSTTAVTTSQITAFQPLLNNFVSSTTASTSRPDKLNLTPPQQSAEIYAFNGVNSDDSDGGLDSRSASRCG | not soluble |
| MEEIWLSCHALVFHTTPTQRLCVGWGELAVGRFVKMAAAPAPEMTPRLDVSKNATDPDSLTDHGFQYSRHRPVITDHKRFDRLVGFSIKQSNVELAAEAIKQAATVWCLTEKKSDKRDEDSVKFLATYLYKESLYWGKIDPRRALQRATAESWLGSQSFAPTSARTYKAVLHTAGRVLYPAEFPPANRYSNPRAKPVDPASVELIDELYGVAATLPAVHRLRLQLILDLTTQSGLRSAEVLDLRGSDVTARILDTGERIALVRVHR | not soluble |
| MEELNKYKQEIKDNALKELDSTKKKINEEKKHWGDLPLTYMPISNGTMTREYAETEQFYSHVVNVKNILDSLFEEVENDIKRLDAIFCFNEYTVYGQEDIEQIKENIKNEYKTSVAHFSKLWEDIKAMSVLLRSCFNKTWDRHSEVTLLTVIQTLDESIKHRGGPNYDKNNDNFFLLRECGSALRECNTQIKMDEKNLIIRIINTKDLEGGFKKSLETLLNENESANFIKLLAEYLEGVNLNVDVQVLKENFFIFAQGIKQFYLNNVETLKD | not soluble |
| MEEMRVIGLLSSGIDSPVAIHLMASRGAEVYPLHFRQDEIKEKKARKLVSRLKEIHGEKVKDLKVVDALKVQGPVFEKLRELKREKWICIFCKYTMYMVAEKYAREVGAEAIVTGDSLGQVASQTLDNLMVISTATNLPIIRPLIALDKEEIVRIAKEIGTFEISIENEPPCPFLPKFPVVRAGFSQFRKILEEIREVLPK | soluble |
| MEENNKILIYTDSEGLTKIDVILEDETLWLTQAQMCELYQTSKSNVSEHIKHIFEEGELQEDSVVRKFRTTASDGKSYMTAYYNLDMIIALGYRIRSIIATRFRQWATQRLKEYMIKGFALDDERLKQLGGGGYWKELLERIRDIRATEKVLYRQVLEIYATSIDYDPRASVSQEFFKKVQNKIHYAIHGHTAAELIVERADAEKDFMGLLTFKGNQPTLSEARTAKNYLDEKELRAMGQLVSGYLDFAERQAEREQPMTMNDWANYLDRILTMSGEQLLLDSGKVSHTEAMEHATNEYRKYKQRTISDVEQDYLDSIKRIGNIGKKGDKNEN | not soluble |
| MEEPINVLLLGMDIGDTSDVSNKDAKRTDTIILANFDPITKEAKLISIPRDTRVKIGGKSQKINAAYPIGGEKLVKQLVGNILGVKVDYVVKVDYEGFRGIIDAIGGIDMYIEQDMNYDDPGQDLHIHFNKGETVHLDGKKAEEFFRWRKNNDGTGLVNGDVDRIKNQQKFINAVIDKVLSVSTITKIDSIAEILNKNIETNIPLDVTVAYGLKGLETDKNNIKMMTLPGEGKYVGNVSYYIPDEKATKELRSQLNSSNLSGRKNVIPSAARGDLSIKVLNCTKINGLAANVQKQLNENGYDKVDVGNGDPREKSEILIKDESSRAFMENDLKIENIKKGISSKYDGNGTYDVVILLGKDFKNFGEMKLEHHHHHH | soluble |
| MEFEFIKNTLLGEYAVRCNMEHQIVGRWLQEEIGQDLAKLKHVLTLIDKAEQSPAQEFLWTGREISLLVQGDEITVQENALAYESEHELETDFALYDSESIAACGREDFVALLTQWQSFIQNQGRF | not soluble |
